Test results as given in patent US9951373B2, “Oplophorus-derived luciferases, novel coelenterazine substrates, and methods of use” (Promega Corporation, priority 2010, dated 2018).

B1: L27V, K43R, Y68D: 9B8 opt+K33N with L27V, K43R, Y68D (SEQ ID NO: 340) (protein)
chain: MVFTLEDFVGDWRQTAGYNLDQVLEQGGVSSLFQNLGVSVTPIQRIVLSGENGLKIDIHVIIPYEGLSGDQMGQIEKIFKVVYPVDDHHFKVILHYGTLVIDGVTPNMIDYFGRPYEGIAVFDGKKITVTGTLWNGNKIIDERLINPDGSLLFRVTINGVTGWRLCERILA
B2: L27V, T39T, K43R, Y68D Sand: L27V in Id-OgLuc-HT7 sandwich (SEQ ID NO: 91) (protein)
chain: MLGLSEQSVSISRCAGTRLPALLDEQQVNVLLYDMNGCYSRLKELVPTLPQNRKVSKVEILQHVIDYIRDLQLELNSESEVGTTGGRGLPVRAPLSTLNGEISALAAEAACVPADDRILCRVSLENLYFQASGGGGGAIAMVFTLEDFVGDWRQTAGYNLDQVLEQGGVSSLFQNLGVSVTPIQRIVLSGENGLKIDIHVIIPYEGLSGDQMGQIEKIFKVVYPVDDHHFKVILHYGTLVIDGVTPNMIDYFGRPYEGIAVFDGKKITVTGTLWNGNKIIDERLINPDGSLLFRVTINGVTGWRLCERILAGYLEPTTEDLYFQSDNDGSEIGTGFPFDPHYVEVLGERMHYVDVGPRDGTPVLFLHGNPTSSYVWRNIIPHVAPTHRCIAPDLIGMGKSDKPDLGYFFDDHVRFMDAFIEALGLEEVVLVIHDWGSALGFHWAKRNPERVKGIAFMEFIRPIPTWDEWPEFARETFQAFRTTDVGRKLIIDQNVFIEGTLPMGVVRPLTEVEMDHYREPFLNPVDREPLWRFPNELPIAGEPANIVALVEEYMDWLHQSPVPKLLFWGTPGVLIPPAEAARLAKSLPNCKAVDIGPGLNLLQEDNPDLIGSEIARWLSTLEISG

Legend:
[1] = Luminescence of 9B8 opt+K33N derived variants in E. coli; assay type: biochemical
Experimental: Luminescence generated from the lysates was measured using the novel PBI-3939 and native coelenterazine as substrates. The relative specificity of the variants for PBI-3939 and native coelenterazine was calculated as described previously.
A new OgLuc library was created using 9B8opt+K33N as a starting template. The random library was created using DIVERSIFY® PCR Random Mutagenesis Kit (ClonTech; Catalog #630703). Condition 5 (as listed in the user manual) was used to generate additional variants, and the average mutation rate was calculated to be 2.6 mutations per gene by compiling sequence data from 83 randomly selected clones. This PCR library was cloned into the pF4Ag-based, non-fusion vector background described previously and the sandwich background, i.e., Id-OgLuc-HT7 (described in Example 45). Variants in the pF4Ag-base non-fusion vector background are designated with (NF). Variants in the sandwich vector background are designated with (F). In order to clone the PCR product into both vectors, an amino acid, i.e., a glycine, was appended to the variant sequence in pF4Ag, generating a new position 170 in the OgLuc variant (“170G”). The 170G is present in the sandwich construct, but in this case is considered part of the linker between OgLuc and HT7. For each library, 4,400 E. coli clones were assayed as described previously with the following exceptions. […] The assay buffer contained 100 mM MES pH 6.0 instead of HEPES, and 35 mM thiourea. The assay volumes were as follows: 10 μL cells, 40 μL, lysis buffer, and 50 μL, assay buffer.
E. coli lysates containing the variants were prepared and analyzed as described previously. Luminescence generated from the lysates was measured using the novel PBI-3939 and native coelenterazine as substrates. The luminescence of the variants was normalized to the luminescence generated by 9B8 opt (Table 12). The relative specificity of the variants for PBI-3939 and native coelenterazine was calculated by dividing the luminescence of the variants using PBI-3939 as a substrate with the luminescence of the variants using native coelenterazine as a substrate (Table 12).

HEK293 cells [2] = test: Luminescence of OgLuc variants expressed in HEK293 cells; assay type: cell-based, human
Experimental: (§1) The PCR library in the pF4Ag-based non-fusion background was screened for additional variants with increased luminescence compared to 9B8 opt+K33N+170G (SEQ ID NOs: 68 and 69). Selected variants were then assayed in HEK293 and NIH3T3 cells. For each cell type, 15,000 cells were plated and grown overnight at 37° C. The next day, the cells were transfected as described in Example 25 with 10 ng pGL4.13 (Promega Corp.) as a transfection control and 100 ng of the OgLuc test DNA. The media was removed, and the cells were lysed with 100 μL of lysis buffer as described in Example 25 except the lysis buffer contained 100 mM MES pH 6.0 instead of HEPES, and luminescence measured using a GLOMAX® Luminometer.
(§2) Based on the above data, further combination variants were designed and generated (see Table 10) in the context of the pF4Ag-based non-fusion vector background without the 170G. The variants were analyzed in E. coli, HEK293 and NIH3T3 cells as described above and compared to 9B8 opt+K33N. The variants were also examined for luminescence with native coelenterazine.
(§3) The brightness of the variants expressed in HEK293 and NIH3T3 cells was measured as described previously. The luminescence of the variants was normalized to the luminescence generated by 9B8 opt (Table 27).

NIH3T3 cells [3] = test: Luminescence of OgLuc variants expressed in NIH3T3 cells; assay type: cell-based
Experimental: as §1, §2, §3

[4] = Enzyme kinetics of OgLuc variants in E. coli lysates; assay type: biochemical; conditions: PBI-3939, E. coli lysates
Experimental: Using methods known in the art, enzyme kinetic assays measuring luminescence were performed with the lysates of E. coli containing IV and the IV variants 15C1, 9B8, 9F6, and 9A3. […] Two fold serial dilutions of PBI-3939 in the assay buffer described previously in Example 26 were assayed with the diluted lysates. […] Variants 9B8 and 9F6 had higher Km values compared to IV while Km values for the other variants were unchanged.
Luminescence was measured on a TECAN® INFINITE® F500 luminometer.
The enzyme kinetics values were determined for the OgLuc variants as described previously, except luminescence was measured using a GLOMAX® luminometer. Three replicates were used for each variant.

[5] = Thermal stability of OgLuc variants at 60° C.; assay type: physicochemical; conditions: 60° C., assay buffer MES pH 6.0
Experimental: Aliquots were removed at different time-points and placed on dry ice to freeze the samples. […] Luminescence was measured on a GLOMAX® luminometer (Promega Corp.).
The thermal stability of the variants at 60° C. was examined as described above, except the assay buffer contained 100 mM MES pH 6.0 instead of HEPES.

HEK293 cells [6] = test: Luminescence in sandwich background, HEK293 cells; assay type: cell-based, human
Experimental: (§4) The PCR library in the Id-OgLuc-HT7 sandwich background was screened for additional variants with increased luminescence compared to 9B8 opt+K33N in sandwich background. Selected variants were then assayed in HEK293 and NIH3T3 cells. […] 1F7 (F) (SEQ ID NOs: 84 and 85) and 15H1 (F) (SEQ ID NOs: 86 and 87) had at least 1.3 fold-increase in luminescence in E. coli. 1F7 (F) was brighter than 9B8 opt+K33N in the sandwich background in HEK293 and NIH3T3 cells.
(§5) The variants 9B8 opt+K33N+T39T+K43R+Y68D (“V2”; SEQ ID NOs: 92 and 93), 9B8 opt+K33N+L27V+K43R+Y68D (SEQ ID NOs: 339 and 340), 9B8 opt+K33N+L27V+T39T+K43R+S66N (SEQ ID NOs: 341 and 342), and 9B8 opt+K33N+L27V+T39T+K43R+Y68D (“L27V”; SEQ ID NOs: 88 and 89) were subcloned into the Id-OgLuc-HT7 sandwich background as described above and assayed in HEK293 and NIH3T3 cells as described above. The luminescence generated by the sandwiched variants were compared to the luminescence generated by the […] sandwich (SEQ ID NOs: 59 and 60) (Table 38). The L27V sandwich (SEQ ID NOs: 90 and 91) and V2 sandwich (SEQ ID NOs: 94 and 95) had at least 1.3× fold-increase in luminescence in HEK293 and NIH3T3 cells.
(§6) The sandwich and non-sandwich versions of the variants V2, 9B8 opt+K33N+L27V+K43R+Y68D, 9B8 opt+K33N+L27V+T39T+K43R+S66N, and L27V were assayed in HEK293 and NIH3T3 cells as described in Example 37. The luminescence generated by the non-sandwiched variants was compared to the luminescence generated by the sandwiched variants (Table 39).

NIH3T3 cells [7] = test: Luminescence in sandwich background, NIH3T3 cells; assay type: cell-based
Experimental: as §4, §5, §6

[8] = relative specificity for PBI-3939 compared to native coelenterazine

Row | Molecule | fold-increase in relative specificity over 9B8 opt+K33N ([1]; in the three cell types examined) | Fold over coelenterazine ([1]; luminescence with PBI-3939 divided by luminescence with native coelenterazine, bacterial lysates) | Fold over 9B8 ([1]; luminescence with PBI-3939 normalized to 9B8 opt, bacterial lysates) | Fold over Native Coelenterazine, E. coli [1, 8] | luminescence normalized to 9B8 opt, HEK293 (HEK293 cells [2]; PBI-3939) | Fold over 9B8 opt + K33N, HEK293 (HEK293 cells [2]; luminescence, PBI-3939) | Fold over Native Coelenterazine, HEK293 (HEK293 cells [2]; [8]) | luminescence normalized to 9B8 opt, NIH3T3 (NIH3T3 cells [3]; PBI-3939) | Fold over 9B8 opt + K33N, NIH3T3 (NIH3T3 cells [3]; luminescence, PBI-3939) | Fold over Native Coelenterazine, NIH3T3 (NIH3T3 cells [3]; [8]) | Km [4] | Vmax [4] | 1/2 life hours [5] | Fold-decrease in luminescence in the presence of sandwich background, HEK 293 (HEK293 cells [6]; non-sandwich versus sandwich) | Fold-decrease in luminescence in the presence of sandwich background, NIH 3T3 cells (NIH3T3 cells [7]; non-sandwich versus sandwich) | Fold over 9B8 opt + K33N sandwich, HEK293 (HEK293 cells [6]; sandwich background) | Fold over 9B8 opt + K33N sandwich, NIH3T3 (NIH3T3 cells [7]; sandwich background)
1 | B1 | 5 × fold | 110 | 1.3 | 98.3 | 1.6 | 0.9 | 101 | 1.5 | 0.8 | 98 | 13.7 µM | 130,000,000 RLU/0.5 sec | 23.2 h | 8 | 22 |  | 
2 | B2 |  |  |  |  |  |  |  |  |  |  |  |  |  |  |  | 1.7 | 1.4
